{
  "source": "paper PMC11374688",
  "about": "“Structural basis for transthiolation intermediates in the ubiquitin pathway” (Nature, 2024)",
  "biological_target": "T1, Schizosaccharomyces pombe Uba1 (lacking the first 12 amino acids) (S. pombe, UniProt O94609 13-1012, active site cysteine thiol linked to the dithioacetal carbon of the Ub(T) Gly76 surrogate)",
  "T1 construct": "Full-length Uba1 was used in the transthiolation assays; this molecule also stands for it in the functional rows; also called E1; source: E. coli BL21 (DE3) codon plus, purified (Ni-NTA, Ulp1, SEC, MonoQ)",
  "T1 sequence (looked up)": "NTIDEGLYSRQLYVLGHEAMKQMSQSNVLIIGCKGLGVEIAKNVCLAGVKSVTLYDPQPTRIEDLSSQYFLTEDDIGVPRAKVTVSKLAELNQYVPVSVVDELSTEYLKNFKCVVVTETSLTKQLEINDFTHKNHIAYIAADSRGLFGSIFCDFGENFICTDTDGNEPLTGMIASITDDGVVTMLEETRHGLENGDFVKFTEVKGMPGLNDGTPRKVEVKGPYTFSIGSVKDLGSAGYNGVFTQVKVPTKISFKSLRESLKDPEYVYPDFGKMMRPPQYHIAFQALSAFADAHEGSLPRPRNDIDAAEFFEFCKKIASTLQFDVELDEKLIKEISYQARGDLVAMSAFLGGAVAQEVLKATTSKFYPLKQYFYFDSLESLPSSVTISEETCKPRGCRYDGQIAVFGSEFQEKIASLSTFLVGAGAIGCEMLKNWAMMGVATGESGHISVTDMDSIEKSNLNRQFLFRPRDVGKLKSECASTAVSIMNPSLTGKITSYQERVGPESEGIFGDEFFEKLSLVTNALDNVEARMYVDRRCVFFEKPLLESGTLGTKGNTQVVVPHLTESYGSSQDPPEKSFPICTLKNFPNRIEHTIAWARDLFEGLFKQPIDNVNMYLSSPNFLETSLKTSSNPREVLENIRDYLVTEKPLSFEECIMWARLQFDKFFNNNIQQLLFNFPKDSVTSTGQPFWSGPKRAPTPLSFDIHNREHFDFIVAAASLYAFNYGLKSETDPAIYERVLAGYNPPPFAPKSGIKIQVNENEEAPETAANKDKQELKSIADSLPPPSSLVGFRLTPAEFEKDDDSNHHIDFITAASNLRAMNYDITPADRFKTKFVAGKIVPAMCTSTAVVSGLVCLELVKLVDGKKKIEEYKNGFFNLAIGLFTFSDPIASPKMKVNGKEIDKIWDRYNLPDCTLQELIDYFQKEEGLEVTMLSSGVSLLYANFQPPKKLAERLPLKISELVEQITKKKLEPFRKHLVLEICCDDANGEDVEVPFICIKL",
  "test": "cryo-EM structure; E1–Ub(T)–E2 (Ub(T) Gly76 surrogate covalently linked to the E1 and E2 active site cysteines) at 3 mg/ml in Tris-HCl pH 7.2, 100 mM NaCl, preincubated 30 min on ice with 5 mM MgCl2, 1 mM ATP and ~0.8 molar equivalents of Ub; 0.05% CHAPSO; doubly and singly loaded complexes resolved from the same sample",
  "details": "both partners purified",
  "data": [
    {"binder": "S. pombe Ub without tags (natural protein, In clusters 3 to 5 of the doubly loaded complex the C terminus of Ub(A) is adenylated (Ub(A)-AMP); also called Ub(A); native Ub; source: E. coli BL21 (DE3) codon plus, purified (as described previously, with additional SEC)) not shown", "values": [
      {"measurement": "binding result", "result": "binds"}
    ]}
  ]
}
